Reference: patent US20220242945A1 (SORRISO PHARMACEUTICALS, published 2022)
Where a chain is given by its changes, count along the chain named. Names and notes keep the numbering of the source. One block for each binder: values may come before it.

Columns and labels:
recombinant human IL-23 [1] = target: T1, recombinant human IL-23 (human, UniProt Q9NPF7 20-189; P29460 23-328); test: IL-23-IL-23R neutralisation ELISA (Evaluation Method A): ICVD titrated with recombinant human IL-23, binding to coated IL-23R-Fc
T1 construct: Heterodimer of p19 and p40; also called hIL-23; interleukin-23; not shown: single C-terminal 6xHis tag
T1 sequence 1: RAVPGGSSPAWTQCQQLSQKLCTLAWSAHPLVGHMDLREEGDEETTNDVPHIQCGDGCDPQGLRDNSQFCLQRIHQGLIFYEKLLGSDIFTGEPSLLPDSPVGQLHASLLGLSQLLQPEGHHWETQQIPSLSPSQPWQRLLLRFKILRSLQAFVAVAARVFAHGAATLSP
T1 sequence 2: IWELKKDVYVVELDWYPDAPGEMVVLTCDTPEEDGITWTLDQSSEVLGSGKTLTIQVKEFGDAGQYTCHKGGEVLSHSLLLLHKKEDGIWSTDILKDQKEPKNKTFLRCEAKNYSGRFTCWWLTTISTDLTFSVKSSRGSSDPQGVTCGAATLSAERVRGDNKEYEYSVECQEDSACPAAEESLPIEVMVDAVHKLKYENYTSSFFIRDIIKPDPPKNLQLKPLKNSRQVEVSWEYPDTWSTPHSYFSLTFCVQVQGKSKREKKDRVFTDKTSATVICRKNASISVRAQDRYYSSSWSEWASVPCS
Protocol: (§1) Maxisorp 96-well plates were coated overnight with 50 μl/well 0.3 μg/ml IL-23R-Fc then blocked with 4% milk, 1% BSA.

THP-1 derived nhIL-23 = target: T2, THP-1 derived nhIL-23 (human, UniProt Q9NPF7 20-189; P29460 23-328); test: cell-based or functional assay
T2 sequence (looked up) 1: T1 sequence 1
T2 sequence (looked up) 2: T1 sequence 2

IL-6 = IL-6 (Homo sapiens (Human), UniProt P05231 30-212); test: binding or inhibition ELISA (which of the two is not said)
IL-6, sequence (P05231 30-212 limits assumed): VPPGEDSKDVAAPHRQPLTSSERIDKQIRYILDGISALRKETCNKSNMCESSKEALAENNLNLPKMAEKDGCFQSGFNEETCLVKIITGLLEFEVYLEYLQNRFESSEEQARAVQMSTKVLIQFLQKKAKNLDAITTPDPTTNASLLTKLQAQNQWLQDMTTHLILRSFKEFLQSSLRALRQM

Human IL-12 = target: T3, Human IL-12 (human, UniProt P29459 23-219; P29460 23-328); test: as above
T3 sequence (looked up) 1: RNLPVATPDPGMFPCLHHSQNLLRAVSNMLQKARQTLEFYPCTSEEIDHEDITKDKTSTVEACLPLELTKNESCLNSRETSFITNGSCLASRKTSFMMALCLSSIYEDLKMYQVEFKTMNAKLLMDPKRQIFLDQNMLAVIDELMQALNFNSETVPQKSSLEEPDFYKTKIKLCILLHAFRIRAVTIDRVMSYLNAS
T3 sequence (looked up) 2: T1 sequence 2

rhesus monkey IL-12 = target: T4, rhesus monkey IL-12 (rhesus monkey, UniProt P48091 23-219; P48095 23-328); test: as above
T4 sequence (looked up) 1: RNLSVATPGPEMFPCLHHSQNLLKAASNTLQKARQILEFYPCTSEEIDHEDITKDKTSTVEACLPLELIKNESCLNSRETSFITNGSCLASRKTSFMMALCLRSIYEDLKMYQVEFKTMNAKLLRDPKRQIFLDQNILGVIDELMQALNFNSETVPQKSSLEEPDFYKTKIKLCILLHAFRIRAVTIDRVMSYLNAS
T4 sequence (looked up) 2: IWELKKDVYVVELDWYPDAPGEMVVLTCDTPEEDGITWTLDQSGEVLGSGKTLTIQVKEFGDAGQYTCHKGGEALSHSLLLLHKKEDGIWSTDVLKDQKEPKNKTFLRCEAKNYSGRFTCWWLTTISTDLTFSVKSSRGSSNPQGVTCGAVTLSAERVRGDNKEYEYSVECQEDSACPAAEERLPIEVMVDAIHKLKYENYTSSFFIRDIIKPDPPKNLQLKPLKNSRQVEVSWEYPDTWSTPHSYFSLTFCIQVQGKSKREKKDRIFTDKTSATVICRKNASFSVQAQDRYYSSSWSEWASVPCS

recombinant human IL-23 [2] = target: T1, recombinant human IL-23; test: SPR (Biacore), recombinant human IL-23 captured by an anti-p40 mAb on the chip, ICVD flowed over; average KD
recombinant human IL-23 [3] = target: T1, recombinant human IL-23; test: IL-23-IL-23R neutralisation ELISA
Protocol: as §1
(§2) The Family L ICVD 12G1 underwent sequence modification to produce multiple variant ICVDs. These variant ICVDs were tested in the potency and protease stability assays detailed above.

recombinant human IL-23 [4] = target: T1, recombinant human IL-23; test: IL-23-IL-23R inhibition ELISA (Evaluation Method A), side by side with brazikumab
Protocol: as §1

recombinant human IL-23 [5] = target: T1, recombinant human IL-23; test: IL-23-IL-23R neutralisation ELISA; average of 5 independent experiments
Protocol: as §1, §2

recombinant human IL-23 [6] = target: T1, recombinant human IL-23; test: IL-23-IL-23R neutralisation ELISA; one experiment, left out of the average by the filing as an outlier
human TNFα = target: T5, human TNFα (human, UniProt P01375 77-233); test: competition ELISA on plate-coated human TNFα; competitor 2 nM biotinylated adalimumab, detected with ExtrAvidin-HRP, A450
T5 construct: also called TNF-alpha
T5 sequence (P01375 77-233 limits assumed): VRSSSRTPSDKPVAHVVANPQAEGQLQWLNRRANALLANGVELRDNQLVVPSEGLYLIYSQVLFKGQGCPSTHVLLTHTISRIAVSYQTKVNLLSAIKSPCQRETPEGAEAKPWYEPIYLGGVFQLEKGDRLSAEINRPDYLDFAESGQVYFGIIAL
Protocol: ELISA plates were coated with 100 ng/mL human TNFα in 250 μg/mL bovine serum albumin (BSA) in phosphate buffered saline (1×PBS) and blocked with 1% BSA in 1× PBS. […] Otherwise 1% BSA was used as an assay diluent.

recombinant human IL-23 [7] = target: T1, recombinant human IL-23; test: IL-23-IL-23R neutralisation ELISA (sheet title 'IL-23 IL23R ELISA'); construct blocks binding of IL-23 to IL-23R; A450

Mouse splenocyte (EC50; mIL-17 secretion, Evaluation Method C) (THP-1 derived nhIL-23): 6.35 nM
EC50 (recombinant human IL-23 [3]): 0.24 nM
B7: ID-L237T (VHH)
VHH: EVQLVESGGGQVQPGGSLSLSCESSVSIWSFKVMGWFRQVPGKQRELVATITTGGSPDYSDSVKGRFTISRDYDKRTLYLQMNSLKPEDTARYYCAGRLWAHITSSGHDVWGQGTQVTVSS
notes: Relative to ID-L253T: D1E, V92R

Mouse splenocyte (EC50; mIL-17 secretion, Evaluation Method C) (THP-1 derived nhIL-23): 5 nM
EC50 (recombinant human IL-23 [3]): 0.27 nM
B9: ID-L243T (VHH)
VHH: B7 VHH with S19R, P87S
notes: Relative to ID-L253T: D1E, S19R, P87S, V92R

EC50 (recombinant human IL-23 [3]): 2.15 nM
B10: ID-L246T (VHH)
VHH: B7 VHH with V40A, I69L, L78V, R92V
notes: Relative to ID-L253T: D1E, V40A, I69L, L78V

Mouse splenocyte (EC50; mIL-17 secretion, Evaluation Method C) (THP-1 derived nhIL-23): 4.47 nM
EC50 (recombinant human IL-23 [3]): 0.17 nM
B14: ID-L248T (VHH)
VHH: B7 VHH with K43H, R45L, R92V
notes: Relative to ID-L253T: D1E, K43H, R45L

Mouse splenocyte (EC50; mIL-17 secretion, Evaluation Method C) (THP-1 derived nhIL-23): 3.84 nM
EC50 (recombinant human IL-23 [3]): 0.26 nM
B16: ID-L239T (VHH)
VHH: B7 VHH with S19R, R45L
notes: Relative to ID-L253T: D1E, S19R, R45L, V92R

Mouse splenocyte (EC50; mIL-17 secretion, Evaluation Method C) (THP-1 derived nhIL-23): 5.2 nM
EC50 (recombinant human IL-23 [3]): 0.26 nM
B19: ID-L252T (VHH)
VHH: B7 VHH with V40A, Q44E, R45L, I69L, L78V, R92V
notes: Relative to ID-L253T: D1E, V40A, Q44E, R45L, I69L, L78V

binding result (human TNFα): binds
B23: ID-38F (VHH)
VHH: DVQLVESGGGLVQPGGSLKLSCAASGFDFSSHWMYWVRQAPGKELEWLSEINTNGLITHYGDSVKGRFTVSRNNAANKMYLELTRLEPEDTALYYCARNQHGLNKGQGTQVTVSS
notes: also called anti-TNF-alpha ICVD ID-38F

More lines, now with the values behind:

B1: 12G1 (VHH)
VHH: EVQLVESGGGLVQPGGSLRLSCAASVSIWSFKVMGWYRQVPGKQRELVATITTGGSPDYADSVKGRFTMSRDYDKRTVFLEMDSVKPEDAAVYYCNGRLWAHLTSSGHDVWGQGTRVTVSS
notes: Purified primary clone made in E. coli; also called Family L ICVD 12G1; not shown: C-terminal FLAG and 6xHis tags from vector pMEK222
EC50 (recombinant human IL-23 [1]): 0.387 nM

B2: 1E2 (VHH)
VHH: B1 VHH with R116Q
notes: Purified primary clone made in E. coli; also called Family L ICVD 1E2; not shown: C-terminal FLAG and 6xHis tags from vector pMEK222
EC50 (recombinant human IL-23 [1]): 0.546 nM

B3: ID-L253T (VHH)
VHH: B7 VHH with E1D, R92V
notes: Optimised variant of 12G1
Mouse splenocyte (EC50; mIL-17 secretion, Evaluation Method C) (THP-1 derived nhIL-23): 13.5 nM
binding result (IL-6): no binding
binding result (Human IL-12): no binding
binding result (rhesus monkey IL-12): no binding
Kd (recombinant human IL-23 [2]): 0.032 nM
EC50 (recombinant human IL-23 [3]): 0.23 nM
EC50 (recombinant human IL-23 [4]): 0.202 nM

B4: ID-L249T (VHH)
VHH: B7 VHH with V40A, R45L, D58H, R92V
notes: Relative to ID-L253T: D1E, V40A, R45L, D58H
Mouse splenocyte (EC50; mIL-17 secretion, Evaluation Method C) (THP-1 derived nhIL-23): 4.27 nM
EC50 (recombinant human IL-23 [3]): 0.74 nM

B5: ID-L245T (VHH)
VHH: B7 VHH with R92V
notes: Relative to ID-L253T: D1E
EC50 (recombinant human IL-23 [3]): 0.25 nM

B6: ID-L242T (VHH)
VHH: B7 VHH with S19R, S60R
notes: Relative to ID-L253T: D1E, S19R, S60R, V92R
Mouse splenocyte (EC50; mIL-17 secretion, Evaluation Method C) (THP-1 derived nhIL-23): 3.01 nM
EC50 (recombinant human IL-23 [3]): 0.22 nM

B8: ID-L238T (VHH)
VHH: B7 VHH with S19R, V40A
notes: Relative to ID-L253T: D1E, S19R, V40A, V92R
Mouse splenocyte (EC50; mIL-17 secretion, Evaluation Method C) (THP-1 derived nhIL-23): 5.54 nM
EC50 (recombinant human IL-23 [3]): 0.2 nM

B11: ID-L244T (VHH)
VHH: B7 VHH with S19R, R92V
notes: Relative to ID-L253T: D1E, S19R
Mouse splenocyte (EC50; mIL-17 secretion, Evaluation Method C) (THP-1 derived nhIL-23): 6.62 nM
EC50 (recombinant human IL-23 [3]): 0.24 nM

B12: ID-L210T (VHH)
VHH: B7 VHH with S19R
notes: Relative to ID-L253T: D1E, S19R, V92R
Mouse splenocyte (EC50; mIL-17 secretion, Evaluation Method C) (THP-1 derived nhIL-23): 5.63 nM
EC50 (recombinant human IL-23 [5]): 0.32 nM
EC50 (recombinant human IL-23 [6]): 1.1 nM

B13: ID-L250T (VHH)
VHH: B7 VHH with V40A, R45L, L47F, D58H, R92V
notes: Relative to ID-L253T: D1E, V40A, R45L, L47F, D58H
EC50 (recombinant human IL-23 [3]): 6.95 nM

B15: ID-L247T (VHH)
VHH: B7 VHH with V40A, R45L, R92V
notes: Relative to ID-L253T: D1E, V40A, R45L
Mouse splenocyte (EC50; mIL-17 secretion, Evaluation Method C) (THP-1 derived nhIL-23): 4.52 nM
EC50 (recombinant human IL-23 [3]): 0.31 nM

B17: ID-L251T (VHH)
VHH: B7 VHH with S19R, Q44E, L47F, D58H, R92V
notes: Relative to ID-L253T: D1E, S19R, Q44E, L47F, D58H
Mouse splenocyte (EC50; mIL-17 secretion, Evaluation Method C) (THP-1 derived nhIL-23): 5.74 nM
EC50 (recombinant human IL-23 [3]): 1.99 nM

B18: ID-L241T (VHH)
VHH: B7 VHH with S19R, D58H
notes: Relative to ID-L253T: D1E, S19R, D58H, V92R
Mouse splenocyte (EC50; mIL-17 secretion, Evaluation Method C) (THP-1 derived nhIL-23): 3.51 nM
EC50 (recombinant human IL-23 [3]): 0.31 nM

B20: 10E2 (VHH)
VHH: EVQLVESGGGLAQAGGSLRLSCAPSGRAFSGSAMGWFRQVPGKEREFVGVIIWTGGYTYYADSVKGRFTISRDSAKNTVYLQMDSLKPEDTAVYYCAARTPNSSWFPTTLYEYDYWGQGTQVTVSS
notes: Purified primary clone made in E. coli; not shown: C-terminal FLAG and 6xHis tags from vector pMEK222
EC50 (recombinant human IL-23 [1]): 1.45 nM

B21: 10G10 (VHH)
VHH: EVQLVESGGGLVQAGTSLRLSCAASGRTFSNYIMGWFRQAPGKEREFVAIITANGVATDYRDSVKGRFTISRDNARNTGYLEMNSLKPEDTAVYFCALRTRSGSLFDPGTFDYWGQGTQVTVSS
notes: as for B20
EC50 (recombinant human IL-23 [1]): 1.47 nM

B22: FA1K (bispecific antibody)
chain: DVQLVESGGGLVQPGGSLKLSCAASGFDFSSHWMYWVRQAPGKELEWLSEINTNGLITHYGDSVKGRFTVSRNNAANKMYLELTRLEPEDTALYYCARNQHGLNKGQGTQVTVSSGGGGSGGGGSKGGGGSGGGGSEVQLVESGGGQVQPGGSLSLSCESSVSIWSFKVMGWFRQVPGKQRELVATITTGGSPDYSDSVKGRFTISRDYDKRTLYLQMNSLKPEDTAVYYCAGRLWAHITSSGHDVWGQGTQVTVSS
notes: Before trypsin treatment; also called heterobihead anti-IL-23/anti-TNF-alpha construct; ID-38F-(G4S)2-K-(G4S)2-ID-L253T
binding result (human TNFα): binds
binding result (recombinant human IL-23 [7]): binds
